Reference: patent US20250346679A1 (INVOX PHARMA, published 2025)
Substitutions are numbered along the chain they refer to.

B1: FS22-053 in HeID1.3 mock mAb^2 format (bispecific antibody, human IgG1, kappa)
heavy: QVQLQESGPGLVRPSQTLSLTCTVSGSTFSGYGVNWVRQPPGRGLEWIGMIWGDGNTDYNSALKSRVTMLVDTSKNQFSLRLSSVTAADTAVYYCARERDYRLDYWGQGSLVTVSSASTKGPSVFPLAPSSKSTSGGTAALGCLVKDYFPEPVTVSWNSGALTSGVHTFPAVLQSSGLYSLSSVVTVPSSSLGTQTYICNVNHKPSNTKVDKKVEPKSCDKTHTCPPCPAPELLGGPSVFLFPPKPKDTLMISRTPEVTCVVVDVSHEDPEVKFNWYVDGVEVHNAKTKPREEQYNSTYRVVSVLTVLHQDWLNGKEYKCKVSNKALPAPIEKTISKAKGQPREPQVYTLPPSRDELNPPYLFSNQVSLTCLVKGFYPSDIAVEWESNGQPENNYKTTPPVLDSDGSFFLYSKLTVYYNRWQDGNVFSCSVMHEALHNHYTQKSLSLSPG
light: DIQMTQSPASLSASVGETVTITCRASGNIHNYLAWYQQKQGKSPQLLVYNAKTLADGVPSRFSGSGSGTQYSLKINSLQPEDFGSYYCQHFWSTPRTFGGGTKLEIKRTVAAPSVFIFPPSDEQLKSGTASVVCLLNNFYPREAKVQWKVDNALQSGNSQESVTEQDSKDSTYSLSSTLTLSKADYEKHKVYACEVTHQGLSSPVTKSFNRGEC
notes: mock mAb^2: CD137 site in the CH3, Fab against hen egg lysozyme
B2: FS22-172 in HeID1.3 mock mAb^2 format (bispecific antibody, human IgG1, kappa)
heavy: QVQLQESGPGLVRPSQTLSLTCTVSGSTFSGYGVNWVRQPPGRGLEWIGMIWGDGNTDYNSALKSRVTMLVDTSKNQFSLRLSSVTAADTAVYYCARERDYRLDYWGQGSLVTVSSASTKGPSVFPLAPSSKSTSGGTAALGCLVKDYFPEPVTVSWNSGALTSGVHTFPAVLQSSGLYSLSSVVTVPSSSLGTQTYICNVNHKPSNTKVDKKVEPKSCDKTHTCPPCPAPELLGGPSVFLFPPKPKDTLMISRTPEVTCVVVDVSHEDPEVKFNWYVDGVEVHNAKTKPREEQYNSTYRVVSVLTVLHQDWLNGKEYKCKVSNKALPAPIEKTISKAKGQPREPQVYTLPPSRDELRKYYPPYNQVSLTCLVKGFYPSDIAVEWESNGQPENNYKTTPPVLDSDGSFFLYSKLTVGADRWLEGNVFSCSVMHEALHNHYTQKSLSLSPG
light: B1 light
notes: mock mAb^2
B3: FS22-053-009/HeID1.3 (bispecific antibody, human IgG1, kappa)
heavy: B1 heavy with Y417E, Y418H, N419T, Q422L
light: B1 light
notes: mock mAb^2; also called FS22-053-009 (mock mAb^2 format)
B4: FS22-053-010/HeID1.3 (bispecific antibody, human IgG1, kappa)
heavy: B1 heavy with Y417D, N419M, Q422L
light: B1 light
notes: mock mAb^2; also called FS22-053-010 (mock mAb^2 format)
B5: FS22-053-012/HeID1.3 (bispecific antibody, human IgG1, kappa)
heavy: B1 heavy with Y417D, Y418H, N419M, Q422L, D423E
light: B1 light
notes: mock mAb^2; also called FS22-053-012 (mock mAb^2 format)

Experiments:
[1] = biological target: human CD137, cell-surface (human, UniProt Q07011 24-255); assay: cell-based or functional assay
Chain of human CD137, cell-surface (Q07011 24-255): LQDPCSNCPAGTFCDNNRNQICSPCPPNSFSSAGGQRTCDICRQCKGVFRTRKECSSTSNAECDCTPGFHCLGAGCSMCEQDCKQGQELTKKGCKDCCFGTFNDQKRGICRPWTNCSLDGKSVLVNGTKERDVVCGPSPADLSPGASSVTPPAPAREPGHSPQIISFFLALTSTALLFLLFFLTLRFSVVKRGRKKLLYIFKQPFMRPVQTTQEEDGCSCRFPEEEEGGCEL

hCD137-mFc-Avi = biological target: T1, hCD137-mFc-Avi (human; mouse, UniProt Q07011 24-186, biotin on the Avi sequence where the biotinylated form was used); assay: SPR, mAb^2 captured by anti-human Fab, antigen in flow, 1:1 Langmuir fit
T1 construct: also called human CD137-mFc-Avi; dimeric human CD137; not shown: mouse IgG2a Fc domain (mIgG2a Fc)
T1 sequence (Q07011 24-186): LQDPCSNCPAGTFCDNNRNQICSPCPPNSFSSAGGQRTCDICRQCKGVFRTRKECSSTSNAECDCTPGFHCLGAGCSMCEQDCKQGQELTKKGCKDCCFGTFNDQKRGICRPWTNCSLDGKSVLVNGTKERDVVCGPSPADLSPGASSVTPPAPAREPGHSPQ
Method: (§1) An anti-human Fab capture antibody was immobilised on all four flow cells of a CM5 series S chip (GE Healthcare #BR-1005-30) to an average surface density of 6000 RU following the manufacturer's recommendations (GE Healthcare, human Fab capture Kit, #28958325). […] Each mAb² was captured to approximately 150 RU by injecting a 3 μg/ml solution of mAb² diluted in HBS-EP+ buffer (GE Healthcare #BR1006-69) for 60 seconds at 30 μl/min. Then different concentrations of human, cyno or mouse CD137 antigen (unbiotinylated human, cyno or mouse CD137-mFc-Avi or human CD137-Avi-His) in HBS-EP+ buffer were flowed over the chip for 3 min at 60 μl/min and then allowed to dissociate for 10 minutes. After each antigen concentration the chip was regenerated by infecting 10 mM glycine pH 2.1 at a flow rate of 30 μl/min for 30 seconds. Buffer HBS-EP+ was injected before the highest concentration of antigen and after the lowest concentration of antigen for reference subtraction, and one of the concentrations at random was repeated twice. The binding kinetics were fit with a 1:1 Langmuir model to generate equilibrium binding constants (KD) for each sample. Data analysis was performed with BiaEvaluation software version 3.2.

cCD137-mFc-Avi = biological target: T2, cCD137-mFc-Avi (cynomolgus; mouse); assay: as above
T2 construct: also called cynomolgus CD137-mFc-Avi; Cyno CD137-mFc-Avi; not shown: mouse IgG2a Fc domain (mIgG2a Fc)
T2 chain: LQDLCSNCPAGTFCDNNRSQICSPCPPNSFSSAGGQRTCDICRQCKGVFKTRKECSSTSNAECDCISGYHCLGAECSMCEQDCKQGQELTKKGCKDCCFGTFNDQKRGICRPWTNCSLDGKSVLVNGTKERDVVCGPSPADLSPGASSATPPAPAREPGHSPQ
Method: as §1

human CD40 = human CD40 (human, UniProt P25942 21-193, limits assumed); assay: SPR, receptor amine-coupled to CM5 (~1000 RU)
Chain of human CD40 (P25942 21-193 limits assumed): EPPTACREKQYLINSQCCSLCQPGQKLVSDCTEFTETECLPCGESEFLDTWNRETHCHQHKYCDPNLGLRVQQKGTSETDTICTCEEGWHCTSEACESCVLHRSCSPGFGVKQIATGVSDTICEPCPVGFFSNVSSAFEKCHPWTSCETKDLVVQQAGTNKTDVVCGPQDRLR
Method: (§2) The specificity of the anti-human CD137 Fcabs for human CD137 compared to other related TNFSFR family members was tested. 8 of the Fcabs were tested in mock mAb² (HeID1.3) format and measured by SPR in a Biacore T200 (GE Healthcare) by testing for binding to other human TNFRSF receptors: CD40, OX40 and GITR. Amine coupling (amine coupling kit, GE Healthcare, BR-1000-50) was used to coat human CD40, GITR and OX40 to approximately 1000 RU in Biacore CM5 chips (GE Healthcare, cat no 29149603). […] The chip was regenerated by injection of 10 mM glycine pH 2.5 for 12 s at 30 μl/min. Antibodies specific to the different TNFRSF members were used as positive controls to verify Biacore chip coating. Data was double reference subtracted and analysed using BIAevaluation 3.2 software.

human OX40 = biological target: T3, human OX40 (human, UniProt P43489 29-216); assay: SPR, receptor amine-coupled to CM5 (~1000 RU)
T3 sequence (looked up): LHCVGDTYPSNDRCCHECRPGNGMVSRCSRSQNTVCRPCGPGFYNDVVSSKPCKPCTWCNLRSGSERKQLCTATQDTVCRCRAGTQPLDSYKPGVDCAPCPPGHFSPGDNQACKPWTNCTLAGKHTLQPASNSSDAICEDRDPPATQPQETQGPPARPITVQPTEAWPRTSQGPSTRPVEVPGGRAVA
Method: as §2

human GITR = biological target: T4, human GITR (human, UniProt Q9Y5U5 26-161, limits assumed); assay: SPR, receptor amine-coupled to CM5 (~1000 RU)
T4 sequence (looked up): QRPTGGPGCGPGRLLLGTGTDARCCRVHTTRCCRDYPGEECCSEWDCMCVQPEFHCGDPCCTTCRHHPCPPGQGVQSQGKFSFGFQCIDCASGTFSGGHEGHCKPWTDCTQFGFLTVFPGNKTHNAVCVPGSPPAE
Method: as §2

| Binder | luciferase signal, NF-κB reporter assay (HEK.FRT.luc.hCD137), fold increase on Protein L crosslinking [1] [fold] | Kd (hCD137-mFc-Avi) [nM] | Kd (cCD137-mFc-Avi) [nM] | binding result (human CD40) | binding result (human OX40) | binding result (human GITR) |
| --- | --- | --- | --- | --- | --- | --- |
| B1 | ≥ 10 | 38 | 34 |  |  |  |
| B2 | ≥ 10 | 52 | 203 |  |  |  |
| B3 |  |  |  | no binding (tested: 1 µM) | no binding (tested: 1 µM) | no binding (tested: 1 µM) |
| B4 |  |  |  | no binding (tested: 1 µM) | no binding (tested: 1 µM) | no binding (tested: 1 µM) |
| B5 |  |  |  | no binding (tested: 1 µM) | no binding (tested: 1 µM) | no binding (tested: 1 µM) |
